From publication PMC2928020 come the findings set out here.

pKd: −log10 of the molar value.

The target in this test is FITC-labeled alanine-extended version of the β2AR C-terminal peptide (TNDSLLA) (human). Description: fluorescence polarisation. For orientation: In fluorescence polarisation assays a small probe gives low polarisation when free and higher when bound to something large.

Usually pKd stands for the Kd on a negative log10 scale, so that one unit is a factor of ten. A high value points to a small Kd. “SNX27 PDZ domain, wild type (residues 39-131 of rat SNX27) (from UniProt Q8K4V4 39-131) (domain or fragment)”: the negative-log Kd (pKd) is < 4.00.
